From patent US20140378663A1 come the findings set out here.

Experiment [1] has as its target FcγRIIb (R&D system) (human) (UniProt P31994). The experiment is described as follows: ELISA, purified IgG from YB2/0, vs R593 IgG-WT.
Experiment [2] has as its target FcγRIIaH131 (PX Therapeutics, His-tagged) (human) (UniProt P12318). The experiment is described as follows: ELISA, purified IgG from YB2/0, vs R593 IgG-WT.
In experiment [3] the target is FcRn-p3 (fusion protein of β2 microglobulin chain and FcRn α-chain fused to bacteriophage protein p3 and CVDE protein) (UniProt P61769). Briefly: ELISA, purified IgG from YB2/0, vs R593 IgG-WT.
Chain of FcRn-p3 (fusion protein of β2 microglobulin chain and FcRn α-chain fused to bacteriophage protein p3 and CVDE protein) (P61769 21-119, chain 1 of 2): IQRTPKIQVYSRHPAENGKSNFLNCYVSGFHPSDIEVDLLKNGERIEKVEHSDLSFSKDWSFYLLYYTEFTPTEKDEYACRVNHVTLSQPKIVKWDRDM
Chain of FcRn-p3 (fusion protein of β2 microglobulin chain and FcRn α-chain fused to bacteriophage protein p3 and CVDE protein) (P55899 24-290, chain 2 of 2, further chain): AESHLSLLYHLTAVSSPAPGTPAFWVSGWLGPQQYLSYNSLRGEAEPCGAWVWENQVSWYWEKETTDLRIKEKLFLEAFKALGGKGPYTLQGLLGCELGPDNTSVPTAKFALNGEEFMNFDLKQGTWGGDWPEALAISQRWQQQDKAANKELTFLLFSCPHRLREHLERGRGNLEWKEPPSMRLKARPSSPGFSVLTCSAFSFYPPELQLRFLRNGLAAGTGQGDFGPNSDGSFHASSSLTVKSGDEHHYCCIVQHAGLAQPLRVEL
Experiment [4] deals with FcγRIIIaF158 (PX Therapeutics, His-tagged) (human) (UniProt P08637). The experiment is described as follows: ELISA, purified IgG from YB2/0, vs R593 IgG-WT.
Chain of FcγRIIIaF158 (PX Therapeutics, His-tagged) (human) (P08637 17-208 limits assumed): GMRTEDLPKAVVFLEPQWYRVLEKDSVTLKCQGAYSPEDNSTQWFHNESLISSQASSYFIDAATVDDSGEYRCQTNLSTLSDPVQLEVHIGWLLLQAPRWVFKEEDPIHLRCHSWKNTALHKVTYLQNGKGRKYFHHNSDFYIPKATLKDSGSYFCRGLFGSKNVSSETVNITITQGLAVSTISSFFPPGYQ
For experiment [5], the target named is FcγRIIIaV158 (R&D system) (human) (UniProt P08637). The experiment is described as follows: ELISA, purified IgG from YB2/0, vs R593 IgG-WT.
Chain of FcγRIIIaV158 (R&D system) (human) (P08637 17-208 F176V limits assumed): as the sequence (P08637 17-208 limits assumed) above, with F160V counted along it
Experiment [6] concerns the target FcγRI (R&D system) (human) (UniProt P12314). The experiment is described as follows: ELISA, purified IgG from YB2/0, vs R593 IgG-WT.
For experiment [7], the target named is FcγRIIaR131 (R&D system) (human) (UniProt P12318). The experiment is described as follows: ELISA, purified IgG from YB2/0, vs R593 IgG-WT.
Chain of FcγRIIaR131 (R&D system) (human) (P12318 36-218 H167R limits assumed): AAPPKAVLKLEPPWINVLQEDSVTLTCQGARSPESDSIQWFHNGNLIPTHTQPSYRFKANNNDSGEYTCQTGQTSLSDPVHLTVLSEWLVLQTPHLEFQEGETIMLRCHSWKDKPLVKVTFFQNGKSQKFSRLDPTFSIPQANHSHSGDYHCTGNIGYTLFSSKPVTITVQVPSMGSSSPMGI
For experiment [8], the target named is Recombinant soluble human FcRn (human) (UniProt P55899). Briefly: SPR (BIAcore X100), FcRn immobilised, pH 6.0.
Chain of Recombinant soluble human FcRn (human) (P55899 24-290 limits assumed, chain 1 of 2): as the sequence (P55899 24-290, chain 2 of 2, further chain) above
Chain of Recombinant soluble human FcRn (human) (P61769 21-119 limits assumed, chain 2 of 2, further chain): as the sequence (P61769 21-119, chain 1 of 2) above
The target in experiment [9] is RhD antigen on RhD+ red blood cells (UniProt Q02161). Briefly: flow cytometry on RhD+ red blood cells.
Chain of RhD antigen on RhD+ red blood cells (Q02161 2-417 limits assumed): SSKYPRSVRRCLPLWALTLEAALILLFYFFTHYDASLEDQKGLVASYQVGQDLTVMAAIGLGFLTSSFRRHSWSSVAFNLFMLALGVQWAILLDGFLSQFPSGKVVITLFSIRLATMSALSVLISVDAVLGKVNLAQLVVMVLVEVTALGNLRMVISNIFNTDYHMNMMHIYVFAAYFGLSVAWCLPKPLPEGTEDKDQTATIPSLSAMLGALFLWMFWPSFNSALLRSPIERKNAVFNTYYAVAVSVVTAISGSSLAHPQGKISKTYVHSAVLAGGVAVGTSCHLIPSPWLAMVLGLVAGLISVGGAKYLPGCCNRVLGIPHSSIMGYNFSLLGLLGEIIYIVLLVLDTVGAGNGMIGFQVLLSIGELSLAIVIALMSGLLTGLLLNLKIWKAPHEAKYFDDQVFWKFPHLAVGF
Experiment [10] deals with Recombinant soluble human FcRn (human) (UniProt P55899). The experiment is described as follows: SPR, FcRn immobilised, pH 6.0; reference R593.
A further experiment deals with Fcγ receptors. Briefly: cell-based or functional assay.
Experiment [11] concerns the target FcγRIIb (R&D system) (human) (UniProt P31994). The experiment is described as follows: ELISA, 293-F supernatant, vs R603 IgG-WT.
The target in experiment [12] is FcRn-p3 (fusion protein of β2 microglobulin chain and FcRn α-chain fused to bacteriophage protein p3 and CVDE protein) (UniProt P61769). The experiment is described as follows: ELISA, 293-F supernatant, vs R603 IgG-WT.
For experiment [13], the target named is FcγRI (R&D system) (human) (UniProt P12314). The experiment is described as follows: ELISA, 293-F supernatant, vs R603 IgG-WT.
Chain of FcγRI (R&D system) (human) (P12314 16-288 limits assumed): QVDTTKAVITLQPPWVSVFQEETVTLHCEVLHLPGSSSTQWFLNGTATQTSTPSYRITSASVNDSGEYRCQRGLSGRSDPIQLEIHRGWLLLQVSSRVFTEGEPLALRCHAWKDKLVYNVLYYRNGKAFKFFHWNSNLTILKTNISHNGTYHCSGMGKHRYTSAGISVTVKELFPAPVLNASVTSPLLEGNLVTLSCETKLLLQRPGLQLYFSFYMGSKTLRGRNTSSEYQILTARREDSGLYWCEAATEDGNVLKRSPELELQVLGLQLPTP
The target of experiment [14] is C1q complement (Calbiochem) (UniProt P02745). Briefly: ELISA, 293-F supernatant, vs R603 IgG-WT.
Chain of C1q complement (Calbiochem) (P02745 23-245, chain 1 of 3): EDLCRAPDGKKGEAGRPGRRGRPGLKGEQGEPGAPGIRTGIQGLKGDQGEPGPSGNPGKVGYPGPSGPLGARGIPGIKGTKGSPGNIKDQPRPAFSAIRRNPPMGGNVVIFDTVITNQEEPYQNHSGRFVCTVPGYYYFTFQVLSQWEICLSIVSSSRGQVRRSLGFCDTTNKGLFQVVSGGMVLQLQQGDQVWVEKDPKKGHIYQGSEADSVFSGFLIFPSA
Chain of C1q complement (Calbiochem) (P02746 28-253, chain 2 of 3, further chain): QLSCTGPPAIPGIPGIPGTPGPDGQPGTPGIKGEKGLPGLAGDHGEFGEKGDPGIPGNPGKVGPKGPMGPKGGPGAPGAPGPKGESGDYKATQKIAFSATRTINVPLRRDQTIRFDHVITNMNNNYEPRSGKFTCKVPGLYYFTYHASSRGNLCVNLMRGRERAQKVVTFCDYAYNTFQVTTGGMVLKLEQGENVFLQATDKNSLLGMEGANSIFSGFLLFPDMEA
Chain of C1q complement (Calbiochem) (P02747 29-245, chain 3 of 3, further chain): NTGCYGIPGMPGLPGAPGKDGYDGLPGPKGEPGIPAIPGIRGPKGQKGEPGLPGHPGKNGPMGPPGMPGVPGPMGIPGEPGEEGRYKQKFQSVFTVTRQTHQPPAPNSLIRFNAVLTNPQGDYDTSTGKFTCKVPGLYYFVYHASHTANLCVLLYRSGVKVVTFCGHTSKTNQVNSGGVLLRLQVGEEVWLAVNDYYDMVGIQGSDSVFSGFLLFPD
The target in experiment [15] is FcγRIIaR131 (R&D system) (human) (UniProt P12318). The experiment is described as follows: ELISA, 293-F supernatant, vs R603 IgG-WT.
Experiment [16] deals with FcγRIIIaV158 (R&D system) (human) (UniProt P08637). The experiment is described as follows: ELISA, 293-F supernatant, vs R603 IgG-WT.
Experiment [17] addresses FcγRIIb (R&D system) (human) (UniProt P31994). The experiment is described as follows: ELISA, purified IgG from YB2/0, vs R603 IgG-WT.
The target of experiment [18] is FcγRIIaH131 (PX Therapeutics, His-tagged) (human) (UniProt P12318). The experiment is described as follows: ELISA, purified IgG from YB2/0, vs R603 IgG-WT.
Chain of FcγRIIaH131 (PX Therapeutics, His-tagged) (human) (P12318 34-217 limits assumed): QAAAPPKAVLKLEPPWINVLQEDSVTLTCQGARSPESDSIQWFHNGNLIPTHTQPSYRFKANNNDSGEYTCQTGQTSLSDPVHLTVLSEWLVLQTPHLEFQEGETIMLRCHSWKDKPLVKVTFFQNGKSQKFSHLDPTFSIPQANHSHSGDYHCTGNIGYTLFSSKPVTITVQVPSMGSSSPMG
Experiment [19] concerns the target FcRn-p3 (fusion protein of β2 microglobulin chain and FcRn α-chain fused to bacteriophage protein p3 and CVDE protein) (UniProt P61769). Briefly: ELISA, purified IgG from YB2/0, vs R603 IgG-WT.
The target of experiment [20] is FcγRIIIaF158 (PX Therapeutics, His-tagged) (human) (UniProt P08637). Briefly: ELISA, purified IgG from YB2/0, vs R603 IgG-WT.
Experiment [21] addresses FcγRIIIaV158 (R&D system) (human) (UniProt P08637). Briefly: ELISA, purified IgG from YB2/0, vs R603 IgG-WT.
In experiment [22] the target is FcγRI (R&D system) (human) (UniProt P12314). The experiment is described as follows: ELISA, purified IgG from YB2/0, vs R603 IgG-WT.
Experiment [23] addresses FcγRIIaR131 (R&D system) (human) (UniProt P12318). The experiment is described as follows: ELISA, purified IgG from YB2/0, vs R603 IgG-WT.
Experiment [24] addresses T1, CD20 antigen on Raji lymphoblastoid B cells (UniProt P11836).
T1 sequence (looked up): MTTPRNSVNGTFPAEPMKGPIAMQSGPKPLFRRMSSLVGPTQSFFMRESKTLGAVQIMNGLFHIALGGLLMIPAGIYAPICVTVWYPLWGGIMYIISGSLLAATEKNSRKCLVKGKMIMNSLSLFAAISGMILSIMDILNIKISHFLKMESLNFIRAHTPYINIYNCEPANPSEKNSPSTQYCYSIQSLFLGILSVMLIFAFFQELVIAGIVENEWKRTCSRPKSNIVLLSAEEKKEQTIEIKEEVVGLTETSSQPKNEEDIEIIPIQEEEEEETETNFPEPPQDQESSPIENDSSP
The experiment is described as follows: flow cytometry on Raji cells.

Experiment [25] deals with Recombinant soluble human FcRn (human) (UniProt P55899). The experiment is described as follows: SPR, FcRn immobilised, pH 6.0; reference R603.
Experiment [26] has as its target C1q complement (Calbiochem) (UniProt P02745). The experiment is described as follows: cell-based or functional assay.

Chain of FcγRIIb (R&D system) (human) (P31994 46-217 limits assumed): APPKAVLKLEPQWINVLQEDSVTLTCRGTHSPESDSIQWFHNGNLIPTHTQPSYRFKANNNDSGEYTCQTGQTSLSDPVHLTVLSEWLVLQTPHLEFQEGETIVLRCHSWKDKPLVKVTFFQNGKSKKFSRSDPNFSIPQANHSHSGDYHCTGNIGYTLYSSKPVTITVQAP

For “R593 anti-RhD+ IgG1 variant 256N/378V/383N/434Y (antibody)”, the Ratio/IgG-WT in experiment [1] was 1.55; in [2], 1.01; in experiment [3] it was 7.49; in experiment [4] it was 0.92; in experiment [5], 0.98; in experiment [6] it was 2.19. For the same substance, in experiment [7], the Ratio/IgG-WT was 1.08. Also, the Kd in experiment [8] was found to be 42 nM. In [9], the Ag binding MFI (Arbitrary Unit) is 49.6. For the same substance, the Ratio WT/IgG (KD) in [10] came to 4.52. The substance also returned an ADCC EC50 (ng/ml), lysis of RhD+ red cells with Fcγ receptors of 11.1 ng/mL. This substance also displayed an ADCC Max. Lysis (%) with Fcγ receptors of 93%.

Regarding “R593 anti-RhD+ IgG1 variant 259I/315D/434Y (antibody)”, the Ratio/IgG-WT in experiment [1] came to 1.41; in experiment [2] it was 0.94; in [3], 7.93; in [4] it was 0.94; in experiment [5] it was 0.95; in experiment [6] it was 1.08. For the same substance, the Ratio/IgG-WT in [7] is 1.05. Besides, the Kd in experiment [8] was 20.4 nM. Also, the Ag binding MFI (Arbitrary Unit) in [9] came out at 47.2. In addition, the Ratio WT/IgG (KD) in [10] is 9.31. In the experiment with Fcγ receptors, this substance registered an ADCC EC50 (ng/ml), lysis of RhD+ red cells of 14.2 ng/mL. Moreover, in the experiment with Fcγ receptors, the ADCC Max. Lysis (%) is 89%.

As to “R593 anti-RhD+ IgG1 variant 294Del (antibody)”, the Kd in [8] came to 204 nM. In [9], this substance came in with an Ag binding MFI (Arbitrary Unit) of 52.6. In the experiment with Fcγ receptors, this substance showed an ADCC EC50 (ng/ml), lysis of RhD+ red cells of 75.9 ng/mL and an ADCC Max. Lysis (%) of 5%.

Consider “R603 anti-CD20 IgG1 variant 230S/294Del/315D/428L/434Y (antibody)”, for which the Ratio/IgG-WT in [11] came out at 0.02; in experiment [12], 3.86; in [13], 0.25; in [14], 0.35; in experiment [15], 0.01.

For the substance “R603 anti-CD20 IgG1 variant 256N/378V/383N/434Y (antibody)”, the Ratio/IgG-WT in experiment [11] turned out to be 4.77; in experiment [12], 4.63; in [16], 2.09; in experiment [13], 0.93; in [14] it was 3.65; in experiment [15], 2.59. For the same substance, the Ratio/IgG-WT turned out to be 1.83 in experiment [17]; 0.93 in experiment [18]; 8.51 in experiment [19]; 1.25 in experiment [20]; 1.22 in [21]; 2.19 in experiment [22]. In addition, in [23], the Ratio/IgG-WT worked out at 1.4.

Consider “R603 anti-CD20 IgG1 variant 259I/315D/434Y (antibody)”, for which, in [8], the Kd is 26.9 nM. The substance also gave an Ag binding MFI (Arbitrary Unit) in [24] of 137. Further, the Ratio/IgG-WT turned out to be 1.07 in experiment [11]; 4.32 in experiment [12]; 1.08 in experiment [16]; 0.82 in experiment [13]; 1.26 in experiment [14]; 1.23 in [15]. The Ratio/IgG-WT in [17] was determined as 1.54; in experiment [18] it was 0.99; in experiment [19] it was 6.93; in experiment [20], 1.11; in [21] it was 1.11; in [22] it was 1.12. The Ratio/IgG-WT in [23] stood at 1.11. Further, in experiment [25], the Ratio WT/IgG (KD) is 3.68. In experiment [26], this substance registered a CDC EC50 of 0.41 µg/mL.

In the case of “R603 anti-CD20 IgG1 variant 294Del (antibody)”, the Kd in experiment [8] was 190 nM. The Ag binding MFI (Arbitrary Unit) in experiment [24] came to 126.

For “R603 anti-CD20 IgG1 variant 294Del/302A (antibody)”, the Ratio/IgG-WT in experiment [11] was 0.06; in [12] it was 0.66; in experiment [13], 0.06; in [14] it was 0.21; in experiment [15] it was 0.02.

As for “R603 anti-CD20 IgG1 variant 294Del/307A (antibody)”, the Ratio/IgG-WT in experiment [11] worked out at 0.2; in [12] it was 1.94; in [13] it was 0.35; in experiment [14], 0.46; in experiment [15] it was 0.01.

In the case of “R603 anti-CD20 IgG1 variant 294Del/315D (antibody)”, the Ratio/IgG-WT in experiment [11] was found to be 0.21; in experiment [12], 1.16; in experiment [13], 0.4; in experiment [14], 0.29.

On to “R603 anti-CD20 IgG1 variant 294Del/378V (antibody)”, for which the Ratio/IgG-WT in experiment [11] came out at 0.11; in experiment [12] it was 1.46; in experiment [13], 0.33; in experiment [15], 0.06.

Regarding “R603 anti-CD20 IgG1 variant 294Del/397M (antibody)”, the Ratio/IgG-WT is 0.04 in [11]; 0.84 in [12]; 0.68 in [13]; 0.25 in experiment [14]; 0.03 in [15].

“R603 anti-CD20 IgG1 variant 294Del/434S (antibody)”: the Ratio/IgG-WT was 0.05 in experiment [11]; 2.64 in [12]; 0.49 in experiment [13]; 0.25 in experiment [14]; 0.02 in experiment [15].
